Molecular target: T1, full-length PARP1, purified recombinant (UniProt P09874 1-1014)
T1 construct: PARP1, full length; also called purified PARP1; source: purified recombinant
Assay: MST; Monolith NT.115, 17% LED power, medium MST power, MST-on time of 10 s; full-length proteins
Settings: both partners purified

T1 sequence (P09874 whole entry): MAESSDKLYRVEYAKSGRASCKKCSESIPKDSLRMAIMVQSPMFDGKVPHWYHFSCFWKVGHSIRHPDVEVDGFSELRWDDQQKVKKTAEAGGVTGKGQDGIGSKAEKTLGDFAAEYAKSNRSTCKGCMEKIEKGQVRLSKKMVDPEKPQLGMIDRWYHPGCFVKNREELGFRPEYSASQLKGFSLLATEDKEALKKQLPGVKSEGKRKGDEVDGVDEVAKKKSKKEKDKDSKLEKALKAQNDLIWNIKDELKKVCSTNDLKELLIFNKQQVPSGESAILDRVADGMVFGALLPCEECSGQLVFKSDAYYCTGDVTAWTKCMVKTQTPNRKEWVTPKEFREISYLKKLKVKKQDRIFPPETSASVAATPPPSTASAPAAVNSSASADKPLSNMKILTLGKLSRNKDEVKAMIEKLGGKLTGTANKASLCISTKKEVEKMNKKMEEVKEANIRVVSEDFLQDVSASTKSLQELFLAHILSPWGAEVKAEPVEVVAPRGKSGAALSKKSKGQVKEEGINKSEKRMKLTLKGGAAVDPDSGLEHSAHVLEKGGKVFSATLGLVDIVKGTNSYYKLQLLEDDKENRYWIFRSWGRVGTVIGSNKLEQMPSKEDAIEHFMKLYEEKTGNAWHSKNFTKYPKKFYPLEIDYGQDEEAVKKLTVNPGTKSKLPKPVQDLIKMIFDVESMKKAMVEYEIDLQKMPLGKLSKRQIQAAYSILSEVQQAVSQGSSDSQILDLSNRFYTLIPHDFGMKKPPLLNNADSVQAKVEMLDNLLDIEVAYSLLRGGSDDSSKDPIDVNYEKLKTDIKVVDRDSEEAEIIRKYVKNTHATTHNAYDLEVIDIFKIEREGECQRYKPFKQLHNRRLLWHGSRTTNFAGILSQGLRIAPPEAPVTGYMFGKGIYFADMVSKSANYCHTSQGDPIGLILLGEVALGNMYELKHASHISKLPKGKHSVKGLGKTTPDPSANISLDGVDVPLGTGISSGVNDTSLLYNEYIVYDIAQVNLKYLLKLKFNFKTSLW

Kd: 165 nM
B1: full-length MGMT, purified recombinant (natural protein, UniProt P16455 1-207, looked up)
chain: MDKDCEMKRTTLDSPLGKLELSGCEQGLHEIKLLGKGTSAADAVEVPAPAAVLGGPEPLMQCTAWLNAYFHQPEAIEEFPVPALHHPVFQQESFTRQVLWKLLKVVKFGEVISYQQLAALAGNPKAARAVGGAMRGNPVPILIPCHRVVCSSGAVGNYSGGLAVKEWLLAHEGHRLGKPGLGGSSGLAGAWLKGAGATSGSPPAGRN
notes: MGMT, full length; also called purified MGMT; source: purified recombinant
